{
  "source": "paper PMC5790771",
  "about": "“Reconstitution of Pure Chaperonin Hetero-Oligomer Preparations in Vitro by Temperature Modulation” (Frontiers in Molecular Biosciences, 2018)",
  "binders": {"B1": {"name": "Cpn60α1 (At5g18820) (natural protein)", "chain": "not shown", "notes": "additional glycine-serine at the N-terminus, left by the cloning (printed in words); Cpn60α1, chloroplast chaperonin 60 alpha subunit of A. thaliana, At5g18820; 543 residues without the putative transit peptide; The vector codes for an octa-histidine tag followed by a TEV site at the amino terminus; also called α1 Cpn60; Cpn60α1 subunit; source: E. coli Rosetta (Novagen), purified based on the …"}, "B2": {"name": "Cpn60α2 (At2g28000) (natural protein)", "chain": "not shown", "notes": "additional glycine-serine at the N-terminus, left by the cloning (printed in words); Cpn60α2, chloroplast chaperonin 60 alpha subunit of A. thaliana, At2g28000; 541 residues without the putative transit peptide; The vector codes for an octa-histidine tag followed by a TEV site at the amino terminus; also called α2 Cpn60; Cpn60α2 subunit; source: E. coli Rosetta (Novagen), purified based on the …"}, "B3": {"name": "Cpn60β2 (At3g13470) (natural protein, A. thaliana, UniProt Q9LJE4 51-596, looked up)", "chain": "AAKELHFNKDGTTIRKLQTGVNKLADLVGVTLGPKGRNVVLESKYGSPRIVNDGVTVAREVELEDPVENIGAKLVRQAAAKTNDLAGDGTTTSVVLAQGFIAEGVKVVAAGANPVLITRGIEKTAKALVNELKLMSKEVEDSELADVAAVSAGNNHEVGSMIAEAMSKVGRKGVVTLEEGKSAENNLYVVEGMQFDRGYISPYFVTDSEKMSVEYDNCKLLLVDKKVTNARDLVGVLEDAIRGGYPILIIAEDIEQEALATLVVNKLRGTLKIAALKAPGFGERKSQYLDDIAILTGATVIREEVGLSLDKAGKEVLGNASKVVLTKEMTTIVGDGTTQEAVNKRVVQIRNLIEQAEQDYEKEKLNERIAKLSGGVAVIQVGAQTETELKEKKLRVEDALNATKAAVEEGIVVGGGCTLLRLASKVDAIKDTLENDEEKVGAEIVKRALSYPLKLIAKNAGVNGSVVSEKVLANDNVKFGYNAATGKYEDLMAAGIIDPTKVVRCCLEHAASVAKTFLMSDCVVVEIPEPEPVPAGNPMDNSGYGY", "notes": "Cpn60β2, chloroplast chaperonin 60 beta subunit of A. thaliana, At3g13470; also called β2 Cpn60; source: purified by a previously published protocol (Vitlin et al., 2011)"}},
  "key": {"[1]": {"target": "the molecule itself", "experiment": "cross-linking; 20 μM purified protein, 0.1% glutaraldehyde, room temperature, 50 mM Na-HEPES (pH 8 in the legend, 7.5 in the methods), 10 mM MgCl2, 100 mM KCl; SDS-PAGE on a 2.4-12% gradient gel, Coomassie"}, "Cpn60β2 (At3g13470)": {"target": "B3", "experiment": "SEC; 150 μM α2, 100 μM β2 and 50 μM mt-cpn10 reconstituted with Mg-ATP (2 ml), Superdex 200 run at 4°C in 50 mM Tris-HCl pH 8, 300 mM NaCl, 5% glycerol; fractions on SDS-PAGE", "conditions": "both partners purified"}, "Cpn60β3 (At1g55490)": {"target": "T1, Cpn60β3 (At1g55490) (A. thaliana, UniProt P21240 55-600)", "T1 construct": "Cpn60β3, chloroplast chaperonin 60 beta subunit of A. thaliana, At1g55490; also called β3 Cpn60; source: purified by a previously published protocol (Vitlin et al., 2011)", "T1 sequence (P21240 55-600)": "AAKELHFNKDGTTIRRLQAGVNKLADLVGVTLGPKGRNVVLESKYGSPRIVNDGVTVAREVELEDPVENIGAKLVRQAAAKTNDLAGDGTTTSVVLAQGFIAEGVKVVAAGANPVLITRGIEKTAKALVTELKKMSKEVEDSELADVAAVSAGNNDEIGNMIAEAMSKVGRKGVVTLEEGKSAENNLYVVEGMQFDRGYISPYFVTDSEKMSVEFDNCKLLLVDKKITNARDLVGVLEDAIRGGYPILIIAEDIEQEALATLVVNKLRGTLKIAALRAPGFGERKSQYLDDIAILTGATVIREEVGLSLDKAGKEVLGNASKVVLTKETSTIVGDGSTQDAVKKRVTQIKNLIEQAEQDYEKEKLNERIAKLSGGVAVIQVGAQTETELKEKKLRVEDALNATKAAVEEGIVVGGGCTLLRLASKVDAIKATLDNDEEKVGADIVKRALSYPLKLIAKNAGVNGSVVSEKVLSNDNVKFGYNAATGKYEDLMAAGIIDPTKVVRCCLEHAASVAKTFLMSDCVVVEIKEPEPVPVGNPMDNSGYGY", "experiment": "native gel or EMSA; reconstitution: 150 μM Cpn60α2 with 100 μM Cpn60β and 50 μM Cpn10 (GroES, mt-cpn10, Cpn20 or Cpn10(2)); 50 mM Tris-HCl pH 8, 0.3 M NaCl, 10 mM MgCl2, 16 mM KCl, 2 mM DTT, 5 mM ATP; 5 min at room temperature, 1 h at 30°C; 6% native polyacrylamide gel", "conditions": "both partners purified"}, "[2]": {"target": "the molecule itself", "experiment": "SEC; 300 μM β2 and 150 μM mt-cpn10 reconstituted with Mg-ATP (600 μl), Superdex 200 run at room temperature; fractions on SDS-PAGE"}},
  "data": [
    {"binder": "B1", "values": [
      {"measurement": "stoichiometry N", "setting": "[1]", "value": 2}
    ]},
    {"binder": "B2", "values": [
      {"measurement": "binding result", "setting": "Cpn60β2 (At3g13470)", "value": "binds"},
      {"measurement": "binding result", "setting": "Cpn60β3 (At1g55490)", "value": "binds"}
    ]},
    {"binder": "B3", "values": [
      {"measurement": "binding result", "setting": "[2]", "value": "binds"}
    ]}
  ]
}
